Experimental data as given in article PMC5829831, “Structural Basis for DNA Recognition by the Two-Component Response Regulator RcsB” (mBio, 2018).

Columns and labels:
[1] = biological target: the molecule itself; assay: SEC-MALS; RcsB in the presence of the 22-bp DNA duplex DNA22, with and without CPh; RcsB and DNA 1 mg/ml; Superdex 75 10/300 GL; 10 mM Tris-HCl pH 8.3, 150 mM NaCl, 0.5 mM TCEP; 22°C
RcsB [2] = biological target: T1, RcsB (Escherichia coli str. K-12 substr. …, UniProt P0DMC7 1-216); assay: X-ray crystallography; unphosphorylated, 3.37 A; tetramer on two DNAs; EMSA: 10 mM Tris pH 7.5, 40 mM KCl, 1 mM DTT, 10 mM MgCl2, 5% glycerol, 0.1 ug/ul BSA, room temp; SPR: 10 mM Tris-HCl pH 8.3, 150 mM NaCl, 0.5 mM TCEP, 25 C; settings: protein: recombinant; tags: N-terminal 6xHis (pCA24n, ASKA clone); chain copies: 2; blunt
T1 sequence: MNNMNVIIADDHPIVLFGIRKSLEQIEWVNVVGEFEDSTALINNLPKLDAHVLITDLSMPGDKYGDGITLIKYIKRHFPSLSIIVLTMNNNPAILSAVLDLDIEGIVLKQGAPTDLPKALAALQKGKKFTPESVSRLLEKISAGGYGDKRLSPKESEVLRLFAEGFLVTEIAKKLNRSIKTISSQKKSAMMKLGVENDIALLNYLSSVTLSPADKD

RcsB [3] = biological target: T1, RcsB; assay: SPR; no CPh; EMSA: 10 mM Tris pH 7.5, 40 mM KCl, 1 mM DTT, 10 mM MgCl2, 5% glycerol, 0.1 ug/ul BSA, room temp; SPR: 10 mM Tris-HCl pH 8.3, 150 mM NaCl, 0.5 mM TCEP, 25 C; settings: protein: recombinant; tags: N-terminal 6xHis (pCA24n, ASKA clone); chain copies: 2; label: biotin (SPR); blunt

B1: RcsB, two-component response regulator of the Rcs phosphorelay system (natural protein, E. coli, UniProt P0DMC7 1-216, looked up)
chain: T1 sequence
notes: RcsB from Escherichia coli, full length, REC domain, linker and HTH domain; theoretical mass of the monomer 24 kDa; In some samples carbamoyl phosphate (CPh) and MgCl2 were added to phosphorylate D56; also called RcsB* (in the presence of phosphodonor); unphosphorylated RcsB; source: purified RcsB
stoichiometry N [1]: 2

B2: DNA18 (flhDC RcsAB box) (dsDNA)
DNA 1: TTTAGGAAAAATCTTAGA
DNA 2: TCTAAGATTTTTCCTAAA
binding result (RcsB [2]): binds

B3: DNA22, biotinylated (dsDNA)
DNA 1: GATTTAGGAAAAATCTTAGATA
DNA 2: TATCTAAGATTTTTCCTAAATC
Kd (RcsB [3]): ~5.34 µM
